For data set [1], the target named is RutR AcK7 K7AcK (Escherichia coli K12?) (UniProt P0ACU2). The experiment in a line: ITC. Conditions: ITC: 100 mM potassium phosphate pH 6.4, 150 mM NaCl, 5 mM MgCl2, 2 mM b-ME, 20 or 25 C; SPR: 100 mM potassium phosphate pH 6.4, 300 mM NaCl, 0.05% Tween20 ….
Data set [2] deals with RutR AcK150 K150AcK (Escherichia coli K12?) (UniProt P0ACU2). The data set is described as follows: ITC. The following applies: ITC: 100 mM potassium phosphate pH 6.4, 150 mM NaCl, 5 mM MgCl2, 2 mM b-ME, 20 or 25 C; SPR: 100 mM potassium phosphate pH 6.4, 300 mM NaCl, 0.05% Tween20 ….
Data set [3] addresses RutR AcK95 K95AcK (Escherichia coli K12?) (UniProt P0ACU2). The experiment in a line: ITC. Conditions: ITC: 100 mM potassium phosphate pH 6.4, 150 mM NaCl, 5 mM MgCl2, 2 mM b-ME, 20 or 25 C; SPR: 100 mM potassium phosphate pH 6.4, 300 mM NaCl, 0.05% Tween20 ….
Data set [4] concerns the target RutR AcK21 K21AcK (Escherichia coli K12?) (UniProt P0ACU2). The data set is described as follows: ITC. Conditions: ITC: 100 mM potassium phosphate pH 6.4, 150 mM NaCl, 5 mM MgCl2, 2 mM b-ME, 20 or 25 C; SPR: 100 mM potassium phosphate pH 6.4, 300 mM NaCl, 0.05% Tween20 ….
Data set [5] concerns the target RutR AcK11 K11AcK (Escherichia coli K12?) (UniProt P0ACU2). The data set is described as follows: ITC. The following applies: ITC: 100 mM potassium phosphate pH 6.4, 150 mM NaCl, 5 mM MgCl2, 2 mM b-ME, 20 or 25 C; SPR: 100 mM potassium phosphate pH 6.4, 300 mM NaCl, 0.05% Tween20 ….
Data set [6] addresses RutR AcK7/11 K7AcK;K11AcK (Escherichia coli K12?) (UniProt P0ACU2). The experiment in a line: ITC. Conditions: ITC: 100 mM potassium phosphate pH 6.4, 150 mM NaCl, 5 mM MgCl2, 2 mM b-ME, 20 or 25 C; SPR: 100 mM potassium phosphate pH 6.4, 300 mM NaCl, 0.05% Tween20 ….
Data set [7] has the same target. The experiment in a line: SPR. The following applies: ITC: 100 mM potassium phosphate pH 6.4, 150 mM NaCl, 5 mM MgCl2, 2 mM b-ME, 20 or 25 C; SPR: 100 mM potassium phosphate pH 6.4, 300 mM NaCl, 0.05% Tween20 ….
For data set [8], the target named is T1, RutR K7Q/K11Q (UniProt P0ACU2 1-212, K7Q;K11Q).
T1 sequence: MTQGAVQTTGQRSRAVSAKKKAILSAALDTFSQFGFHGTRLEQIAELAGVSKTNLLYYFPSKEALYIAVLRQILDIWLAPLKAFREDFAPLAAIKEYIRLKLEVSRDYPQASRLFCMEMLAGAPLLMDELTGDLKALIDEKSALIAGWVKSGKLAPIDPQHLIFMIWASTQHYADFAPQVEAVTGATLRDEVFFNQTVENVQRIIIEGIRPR
The experiment in a line: ITC; ITC: 100 mM potassium phosphate pH 6.4, 150 mM NaCl, 5 mM MgCl2, 2 mM b-ME, 20 or 25 C; SPR: 100 mM potassium phosphate pH 6.4, 300 mM NaCl, 0.05% Tween20, 25 C; EMSA: 20 mM Tris-HCl pH 7.5, 100 mM KCl, 2 mM DTT, 10% glycerol, 25 nM DNA, 30 C. The following applies: protein: recombinant; tags: His6; chain copies: 2; blunt. In general terms: Isothermal titration calorimetry measures the heat released or taken up as one component is titrated into another.

The target in data set [9] is T2, RutR K52R (UniProt P0ACU2 1-212, K52R).
T2 sequence: T1 sequence with Q7K, Q11K, K52R
The data set is described as above. The following applies: protein: recombinant; tags: His6; chain copies: 2; blunt.

Data set [10] deals with T3, RutR WT (UniProt P0ACU2 1-212).
T3 sequence: T1 sequence with Q7K, Q11K
Described as above. Conditions: protein: recombinant; tags: His6; chain copies: 2; blunt.

Data set [11] addresses T4, RutR K7Q (UniProt P0ACU2 1-212, K7Q).
T4 sequence: T1 sequence with Q11K
The description is as above. The following applies: protein: recombinant; tags: His6; chain copies: 2; blunt.

The target of data set [12] is T5, RutR K11Q (UniProt P0ACU2 1-212, K11Q).
T5 sequence: T1 sequence with Q7K
Described as above. The following applies: protein: recombinant; tags: His6; chain copies: 2; blunt.

Data set [13] deals with T6, RutR K52Q (UniProt P0ACU2 1-212, K52Q).
T6 sequence: T1 sequence with Q7K, Q11K, K52Q
Described as above. Conditions: protein: recombinant; tags: His6; chain copies: 2; blunt.

The target in data set [14] is T7, RutR K7R/K11R (UniProt P0ACU2 1-212, K7R;K11R).
T7 sequence: T1 sequence with Q7R, Q11R
The data set is described as above. Conditions: protein: recombinant; tags: His6; chain copies: 2; blunt.

Data set [15] concerns the target T8, RutR Δ1-12 (UniProt P0ACU2 13-212, del1-12).
T8 sequence: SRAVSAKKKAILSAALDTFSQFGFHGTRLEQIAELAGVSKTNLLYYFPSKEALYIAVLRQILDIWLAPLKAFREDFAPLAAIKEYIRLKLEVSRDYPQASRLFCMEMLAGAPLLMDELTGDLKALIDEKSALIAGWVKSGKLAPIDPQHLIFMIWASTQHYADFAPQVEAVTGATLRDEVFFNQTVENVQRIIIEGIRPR
The data set is described as follows: EMSA; ITC: 100 mM potassium phosphate pH 6.4, 150 mM NaCl, 5 mM MgCl2, 2 mM b-ME, 20 or 25 C; SPR: 100 mM potassium phosphate pH 6.4, 300 mM NaCl, 0.05% Tween20, 25 C; EMSA: 20 mM Tris-HCl pH 7.5, 100 mM KCl, 2 mM DTT, 10% glycerol, 25 nM DNA, 30 C. The following applies: protein: recombinant; tags: His6; chain copies: 2; blunt. (In general: In EMSA bound probe runs differently from free probe, usually more slowly.)

Data set [16] concerns the molecule itself. The data set is described as follows: SEC; analytical size-exclusion chromatography of the purified RutR proteins; elution as dimer; column and buffer not given. On the technique in general: SEC sorts molecules by how far they enter the pores of the column.

Positions count from the first letter of the chain named.

In general, Kd refers to the equilibrium constant for the complex coming apart. In general, stoichiometry N refers to a count of units in the complex or per binding partner.

Chain of RutR AcK11 K11AcK (Escherichia coli K12?) (P0ACU2 whole entry): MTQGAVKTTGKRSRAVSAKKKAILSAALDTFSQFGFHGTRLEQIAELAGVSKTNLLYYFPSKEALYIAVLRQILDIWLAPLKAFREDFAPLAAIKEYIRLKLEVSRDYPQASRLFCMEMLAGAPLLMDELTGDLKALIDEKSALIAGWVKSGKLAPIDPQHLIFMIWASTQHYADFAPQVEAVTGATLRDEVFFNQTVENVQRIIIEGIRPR
Chain of RutR AcK7/11 K7AcK;K11AcK (Escherichia coli K12?) (P0ACU2 whole entry): as above

On to “GTTTTATGTGCAACTGTTTTGACCGTTTAGTCCACTTTTTACCAGATATTTTAG (double strand) [boxrutA]”, for which the dissociation constant (Kd) in data set [1] amounted to 94 nM; in [2], 72 nM; in data set [3], 32 nM; in data set [4], 58 nM; in [5], 95 nM; in [6], 251 nM.
Regarding “GTTTTAATGTAAATTTTGACCATTTGGTCCACTTTTTTCTGCTCGT (double strand) [biotin-boxcarA]”, the binding signal (fold reduced affinity vs WT) in [7] is 8.

B1: boxrutA (dsDNA)
DNA 1: GTTTTATGTGCAACTGTTTTGACCGTTTAGTCCACTTTTTACCAGATATTTTAG
DNA 2: CTAAAATATCTGGTAAAAAGTGGACTAAACGGTCAAAACAGTTGCACATAAAAC
B1: the dissociation constant Kd worked out at 540 ± 158 nM in data set [8]; 42 ± 30 nM in data set [9]; 44 ± 21 nM in data set [10]; 57 ± 20 nM in [11]; 332 ± 179 nM in data set [12]; 2420 ± 961 nM in data set [13]. In [14], the Kd was determined as 47 ± 20 nM. Also, in data set [15], the binding result was “binds”.

B2: non-acetylated RutR (pyrimidine utilization repressor) wild type (natural protein, E. coli, UniProt P0ACU2 1-212, looked up)
chain: T1 sequence with Q7K, Q11K
notes: RutR, TetR-family transcriptional regulator of Escherichia coli; called full-length RutR WT; Expressed from a modified pRSFDuet-1 that carries a G to P mutation after the start Met of the tag region; No tag cleavage is described; also called RutR WT; source: E. coli BL21 (DE3), purified (Ni-NTA, SEC)
Turning to B2, the “stoichiometry N” value in [16] was 2.

B3: RutR AcK7 (site-specifically K7-acetylated RutR) (natural protein, E. coli)
chain: T1 sequence with Q7K, Q11K
modifications: acetyl-lysine at 7
notes: RutR of Escherichia coli; rutR gene as in m1 with an amber stop codon at K7 for acetyl-L-lysine; Same rutR construct as m1 apart from the amber codon; constructs are in Supplementary Data 4; source: E. coli BL21 (DE3), genetic code expansion (acetyl-L-lysine at an amber codon), purified
As for B3, the “stoichiometry N” value in data set [16] is 2.

B4: RutR AcK150 (site-specifically K150-acetylated RutR) (natural protein, E. coli)
chain: T1 sequence with Q7K, Q11K
modifications: acetyl-lysine at 150
notes: RutR of Escherichia coli; rutR gene as in m1 with an amber stop codon at K150 for acetyl-L-lysine; Same rutR construct as m1 apart from the amber codon; constructs are in Supplementary Data 4; source: E. coli BL21 (DE3), genetic code expansion (acetyl-L-lysine at an amber codon), purified
In the case of B4, the “stoichiometry N” value in [16] came to 2.

B5: double-acetylated RutR AcK7/11 (natural protein, E. coli)
chain: T1 sequence with Q7K, Q11K
modifications: acetyl-lysine at 7 and at 11
notes: RutR of Escherichia coli; rutR gene as in m1 with amber stop codons at K7 and K11 for acetyl-L-lysine; Same rutR construct as m1 apart from the amber codons; constructs are in Supplementary Data 4; also called K7- and K11-double-acetylated RutR; source: E. coli BL21 (DE3), genetic code expansion with an additional plasmid for the optimized MbtRNAopt, purified
As for B5, in [16], the “stoichiometry N” value was determined as 2.

B6: RutR AcK62 (site-specifically K62-acetylated RutR) (natural protein, E. coli)
chain: T1 sequence with Q7K, Q11K
modifications: acetyl-lysine at 62
notes: RutR of Escherichia coli; rutR gene as in m1 with an amber stop codon at K62 for acetyl-L-lysine; Same rutR construct as m1 apart from the amber codon; constructs are in Supplementary Data 4; source: E. coli BL21 (DE3), genetic code expansion (acetyl-L-lysine at an amber codon), purified
Turning to B6, the “stoichiometry N” value in data set [16] is 2.

B7: RutR AcK21 (site-specifically K21-acetylated RutR) (natural protein, E. coli)
chain: T1 sequence with Q7K, Q11K
modifications: acetyl-lysine at 21
notes: RutR of Escherichia coli; rutR gene as in m1 with an amber stop codon at K21 for acetyl-L-lysine; Same rutR construct as m1 apart from the amber codon; constructs are in Supplementary Data 4; source: E. coli BL21 (DE3), genetic code expansion (acetyl-L-lysine at an amber codon), purified
Regarding B7, the “stoichiometry N” value in [16] is 2.

B8: RutR AcK11 (site-specifically K11-acetylated RutR) (natural protein, E. coli)
chain: T1 sequence with Q7K, Q11K
modifications: acetyl-lysine at 11
notes: RutR of Escherichia coli; rutR gene as in m1 with an amber stop codon at K11 for acetyl-L-lysine; Same rutR construct as m1 apart from the amber codon; constructs are in Supplementary Data 4; source: E. coli BL21 (DE3), genetic code expansion (acetyl-L-lysine at an amber codon), purified
As to B8, the “stoichiometry N” value in data set [16] worked out at 2.

B9: RutR AcK52 (site-specifically K52-acetylated RutR) (natural protein, E. coli)
chain: T1 sequence with Q7K, Q11K
modifications: acetyl-lysine at 52
notes: RutR of Escherichia coli; rutR gene as in m1 with an amber stop codon at K52 for acetyl-L-lysine; no electron density for the N-terminal 12 (chain A) or 11 (chain B) residues in the structure; Same rutR construct as m1 apart from the amber codon; constructs are in Supplementary Data 4; also called RutR AcK52•uracil; source: E. coli BL21 (DE3), genetic code expansion (acetyl-L-lysine at an amber …)
As to B9, in data set [16], the “stoichiometry N” value stood at 2.

B10: RutR AcK95 (site-specifically K95-acetylated RutR) (natural protein, E. coli)
chain: T1 sequence with Q7K, Q11K
modifications: acetyl-lysine at 95
notes: RutR of Escherichia coli; rutR gene as in m1 with an amber stop codon at K95 for acetyl-L-lysine; Same rutR construct as m1 apart from the amber codon; constructs are in Supplementary Data 4; source: E. coli BL21 (DE3), genetic code expansion (acetyl-L-lysine at an amber codon), purified
With B10, the “stoichiometry N” value in data set [16] was determined as 2.

B11: boxcarA (dsDNA)
DNA 1: GTTTTAATGTAAATTTTGACCATTTGGTCCACTTTTTTCTGCTCGT
DNA 2: ACGAGCAGAAAAAAGTGGACCAAATGGTCAAAATTTACATTAAAAC
On to B11, for which the Kd in [8] amounted to 153 ± 43 nM; in data set [9] it was 61 ± 36 nM; in data set [10] it was 28 ± 1 nM; in [11] it was 26 ± 12 nM; in [12], 42 ± 16 nM; in data set [13], 1220 ± 1130 nM. In addition, the Kd in data set [14] came to 17 ± 1 nM. In addition, in data set [15], the binding result is reported as “binds”.

The values above are taken from publication PMC10891134, “Bacteria employ lysine acetylation of transcriptional regulators to adapt gene expression to cellular metabolism” (Nature Communications, 2024).
